In article PMC4686834, “Autocrine selection of a GLP-1R G-protein biased agonist with potent antidiabetic effects” (Nature Communications, 2015) one finds EC50, cAMP production (Gαs; HTRF) in CHO cells expressing human GLP-1R and EC50, cAMP production (Gαs; HTRF) in HEK293 cells expressing mouse GLP-1R data, which are given here for one substance.

Experiment [1] concerns the target human GLP-1 receptor (stable CHO cell line) (human) (UniProt P43220).
Experiment [2] addresses mouse GLP-1 receptor (HEK293 cell line) (mouse) (UniProt O35659).

human GLP-1 receptor (stable CHO cell line) (human), sequence (P43220 24-463): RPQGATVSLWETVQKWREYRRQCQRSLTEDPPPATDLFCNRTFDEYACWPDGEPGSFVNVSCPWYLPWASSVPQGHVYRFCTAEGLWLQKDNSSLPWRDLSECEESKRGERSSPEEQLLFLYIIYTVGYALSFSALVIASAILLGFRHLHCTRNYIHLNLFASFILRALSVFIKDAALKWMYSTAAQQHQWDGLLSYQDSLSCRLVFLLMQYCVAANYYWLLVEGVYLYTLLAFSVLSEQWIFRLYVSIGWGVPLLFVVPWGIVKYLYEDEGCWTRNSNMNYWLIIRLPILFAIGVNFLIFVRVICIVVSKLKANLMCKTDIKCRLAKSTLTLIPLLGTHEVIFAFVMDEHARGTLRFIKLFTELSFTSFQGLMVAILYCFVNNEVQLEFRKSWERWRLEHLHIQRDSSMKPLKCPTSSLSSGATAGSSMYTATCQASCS
mouse GLP-1 receptor (HEK293 cell line) (mouse), sequence (O35659 22-463): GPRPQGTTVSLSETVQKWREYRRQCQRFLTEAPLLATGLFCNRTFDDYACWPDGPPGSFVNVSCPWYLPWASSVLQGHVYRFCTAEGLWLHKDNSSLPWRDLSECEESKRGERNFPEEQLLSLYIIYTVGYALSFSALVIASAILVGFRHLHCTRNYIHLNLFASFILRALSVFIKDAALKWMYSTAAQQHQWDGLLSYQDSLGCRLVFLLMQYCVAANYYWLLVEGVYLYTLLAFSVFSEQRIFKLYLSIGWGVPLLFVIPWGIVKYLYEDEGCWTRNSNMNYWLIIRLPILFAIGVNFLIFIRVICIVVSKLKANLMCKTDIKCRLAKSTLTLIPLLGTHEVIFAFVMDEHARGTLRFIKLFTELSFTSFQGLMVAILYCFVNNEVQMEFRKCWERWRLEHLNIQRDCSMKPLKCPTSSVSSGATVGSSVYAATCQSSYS

Regarding “Exendin-4 (from UniProt P26349 48-87) (peptide)”, the EC50, cAMP production (Gαs; HTRF) in CHO cells expressing human GLP-1R in experiment [1] was determined as 91 pM. The same substance gave an EC50, cAMP production (Gαs; HTRF) in HEK293 cells expressing mouse GLP-1R in experiment [2] of 322 pM.
